Here are results for twelve substances from patent US20240132578A1.

Assay in all cases: cell-based or functional assay
In assay [1] the target is HIV-1 93IN905 envelope glycoprotein (Env), clade C pseudovirus (HIV-1).
Assay [2] deals with HIV-1 APV17 envelope glycoprotein (Env), clade B pseudovirus (HIV-1).
Assay [3] has as its target HIV-1 JRFL envelope glycoprotein (Env), clade B pseudovirus (HIV-1).
For assay [4], the target named is HIV-1 APV13 Env (HIV-1 isolate APV13 (clade B)).
Assay [5] deals with HIV-1 APV6 Env (HIV-1 isolate APV6 (clade B)).
Assay [6] has as its target HIV-1 MGRM-C-026 Env (HIV-1 isolate MGRM-C-026 (clade C)).
Assay [7] addresses HIV-1 JR-CSF Env R304A (HIV-1 (isolate JR-CSF, clade B)) (UniProt P20871).
In assay [8] the target is HIV-1 JR-CSF Env E321aA (HIV-1 (isolate JR-CSF, clade B)) (UniProt P20871).
Assay [9] has as its target HIV-1 Env of pseudovirus AC10 (HIV-1).
Assay [10] addresses HIV-1 Env of pseudovirus REJ04541 (HIV-1).
In assay [11] the target is HIV-1 Env of pseudovirus ZM214 (HIV-1).
In assay [12] the target is HIV-1 Env of isolate MG RM-D-018 (subtype D) (HIV-1).
In assay [13] the target is HIV-1 Env of isolate MGRM-F1-015 (subtype F) (HIV-1).
In assay [14] the target is HIV-1 Env of pseudovirus 98CN006 (HIV-1).
The target in assay [15] is HIV-1 envelope glycoprotein (Env) of isolate 92UG037 (HIV-1).
Assay [16] has as its target HIV-1 93UG077 envelope glycoprotein (Env) on virus (HIV-1, clade A, isolate 93UG077).
Assay [17] deals with HIV-1 94UG103 envelope glycoprotein (Env) on virus (HIV-1, clade A, isolate 94UG103).
Assay [18] deals with HIV-1 JRFL envelope glycoprotein (Env) on virus (HIV-1, clade B, isolate JRFL).
The target in assay [19] is HIV-1 MGRM-AG-005 envelope glycoprotein (Env) on virus (HIV-1, clade AG, isolate MGRM-AG-005).
The target in assay [20] is aMLV envelope protein on pseudovirus (control virus).
The target of assay [21] is HIV-1 92BR020 envelope glycoprotein (Env) (HIV-1).
In assay [22] the target is HIV-1 92TH021 envelope glycoprotein (Env) (HIV-1).
The target in assay [23] is HIV-1 93UG077 envelope glycoprotein (Env) (HIV-1).
In assay [24] the target is HIV-1 APV6 envelope glycoprotein (Env) (HIV-1).
Assay [25] addresses HIV-1 JRCSF envelope glycoprotein (Env) (HIV-1) (UniProt P20871).
Assay [26] deals with HIV-1 MGRM-C-028 envelope glycoprotein (Env) (HIV-1).
The target in assay [27] is HIV-1 envelope glycoprotein (Env) of isolate 92TH021 (HIV-1).
The target of assay [28] is HIV-1 envelope glycoprotein (Env) of isolate CMU02 (HIV-1).
The target in assay [29] is HIV-1 envelope glycoprotein (Env) of isolate MGRM-D-001 (HIV-1).
In assay [30] the target is HIV-1 MGRM-D-018 Env (pseudovirus) (HIV-1).
Assay [31] addresses HIV-1 Env of isolate 92TH021 (clade AE) (HIV-1).
Assay [32] concerns the target HIV-1 Env of isolate MGRM-C-027 (clade C) (HIV-1).

Sequence of 1443_C16 (PG16) (TCN-116) (antibody) (VH): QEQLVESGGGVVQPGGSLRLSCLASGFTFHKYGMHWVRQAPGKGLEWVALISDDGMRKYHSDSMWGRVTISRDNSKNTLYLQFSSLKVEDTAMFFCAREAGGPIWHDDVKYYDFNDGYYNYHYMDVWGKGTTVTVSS
Sequence of 1443_C16 (PG16) (TCN-116) (antibody) (VL): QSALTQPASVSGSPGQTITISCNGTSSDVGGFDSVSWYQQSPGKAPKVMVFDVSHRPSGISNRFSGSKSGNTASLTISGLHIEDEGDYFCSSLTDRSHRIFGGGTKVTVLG
Sequence of 5329_C19 (PGT-136) (antibody) (VH): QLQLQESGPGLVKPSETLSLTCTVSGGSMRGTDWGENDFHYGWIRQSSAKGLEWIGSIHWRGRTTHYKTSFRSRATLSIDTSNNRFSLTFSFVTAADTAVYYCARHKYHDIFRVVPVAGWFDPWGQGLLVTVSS
Sequence of 5329_C19 (PGT-136) (antibody) (VL): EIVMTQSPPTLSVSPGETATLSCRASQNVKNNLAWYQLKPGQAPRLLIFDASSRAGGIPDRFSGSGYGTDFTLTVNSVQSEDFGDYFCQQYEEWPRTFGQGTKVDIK

As to 4858_P08 (PGT-123) (antibody), in [1], the IC50, pseudovirus neutralization amounted to 0.0071 µg/mL; the IC80 (pseudovirus neutralization) came out at 0.0281 µg/mL; the IC90 (pseudovirus neutralization) was 0.0625 µg/mL; the IC95 (pseudovirus neutralization) amounted to 0.131 µg/mL. For the same substance, in [2], the IC50, pseudovirus neutralization was found to be 0.18 µg/mL; the IC80 (pseudovirus neutralization) is 0.539 µg/mL; the IC90 (pseudovirus neutralization) was determined as 1.01 µg/mL; the IC95 (pseudovirus neutralization) amounted to 1.75 µg/mL. Also, in [3], the IC50, pseudovirus neutralization came to 0.0283 µg/mL; the IC80 (pseudovirus neutralization) came to 0.0904 µg/mL; the IC90 (pseudovirus neutralization) was found to be 0.178 µg/mL; the IC95 (pseudovirus neutralization) is 0.332 µg/mL.

In assay [4], 4838_L06 (PGT-121) (antibody) gave a Neutralization IC80 of 1.31 µg/mL, a Neutralization IC90 of 2.8 µg/mL and a Neutralization IC95 of 5.15 µg/mL. Besides, in assay [5], the Neutralization IC80 stood at 0.145 µg/mL and the Neutralization IC95 stood at 0.569 µg/mL. Further, the Neutralization IC95 in [6] is 0.0687 µg/mL.

5145_B14 (PGT-127) (antibody) registered a Fold IC50 increase relative to wild-type in assay [7] of 0.4 fold.

Take 5136_H01 (PGT-131) (antibody): the Fold IC50 increase relative to wild-type in [8] came to 1.8 fold.

Regarding 1443_C16 (PG16) (TCN-116) (antibody), the IC50, pseudovirus neutralization (TZM-bl assay) is below 0.01 µg/mL in assay [9], below 0.01 µg/mL in assay [10] and above 25 µg/mL in assay [11].

Take PGV04 (antibody): the IC50 (µg/mL), pseudovirus neutralization amounted to 17.5 µg/mL in [12] and 0.179 µg/mL in assay [13]. For the same substance, the IC50, pseudovirus neutralization in [14] worked out at 1.32 µg/mL. The same substance had an IC50 in assay [15] of 0.145 µg/mL.

Regarding 4877_D15 (PGT-122) (antibody), in assay [16], the Neutralization IC80 came to 0.931 µg/mL, the Neutralization IC90 turned out to be 2.1 µg/mL, the Neutralization IC95 turned out to be 3.88 µg/mL and the neutralization IC50 was determined as 0.191 µg/mL. For the same substance, in [17], the Neutralization IC80 turned out to be 6.58 µg/mL, the Neutralization IC90 is above 10 µg/mL, the Neutralization IC95 is above 10 µg/mL and the neutralization IC50 worked out at 1.46 µg/mL. Further, in [18], the Neutralization IC80 was found to be 0.166 µg/mL, the Neutralization IC90 was 0.342 µg/mL, the Neutralization IC95 was found to be 0.659 µg/mL and the neutralization IC50 was determined as 0.0471 µg/mL. In [19], the Neutralization IC80 was above 10 µg/mL, the Neutralization IC90 is above 10 µg/mL, the Neutralization IC95 is above 10 µg/mL and the neutralization IC50 was above 10 µg/mL.

As for 5343_B08 (PGT-135) (antibody), in assay [20], the Neutralization IC80 was above 10 µg/mL, the Neutralization IC90 is above 10 µg/mL, the Neutralization IC95 is above 10 µg/mL and the neutralization IC50 is above 10 µg/mL.

In the case of 5329_C19 (PGT-136) (antibody), the Neutralization IC80 in [21], in assay [22], in assay [23], in assay [24], in [25] and in [26] was above 10 µg/mL each time. The Neutralization IC90 in assay [21], in assay [22], in [23], in assay [24], in assay [25] and in [26] was above 10 µg/mL throughout. The Neutralization IC95 in assay [21], in [22], in [23], in [24], in [25] and in [26] was above 10 µg/mL in each case. The neutralization IC50 in assay [21], in assay [22], in [23], in assay [24], in [25] and in assay [26] was above 10 µg/mL throughout.

In assay [27], 5141_B17 (PGT-126) (antibody) gave a Neutralization IC80 of 1.62 µg/mL, a Neutralization IC90 of 6.91 µg/mL, a Neutralization IC95 above 10 µg/mL and a neutralization IC50 of 0.115 µg/mL. Further, in assay [28], the Neutralization IC80 was above 10 µg/mL, the Neutralization IC90 was above 10 µg/mL, the Neutralization IC95 was above 10 µg/mL and the neutralization IC50 is above 10 µg/mL. Also, in assay [29], the Neutralization IC80 was determined as 0.333 µg/mL, the Neutralization IC90 turned out to be 0.832 µg/mL, the Neutralization IC95 worked out at 1.8 µg/mL and the neutralization IC50 turned out to be 0.0639 µg/mL.

In assay [30], 5123_A06 (PGT-125) (antibody) returned a Neutralization by PGT-125, IC50 of 0.0382 µg/mL; a Neutralization by PGT-125, IC80 of 0.144 µg/mL; a Neutralization by PGT-125, IC90 of 0.339 µg/mL; a Neutralization by PGT-125, IC95 of 0.892 µg/mL.

In [31], 1496_C09 (PG9) (TCN-109) (antibody) had a Neutralization IC80 of 0.448 µg/mL, a Neutralization IC90 of 1.07 µg/mL, a Neutralization IC95 of 2.43 µg/mL and a neutralization IC50 of 0.103 µg/mL. The neutralization IC50 in [32] came out at 2.45 µg/mL.

What is called IC50 is the point on the concentration scale where inhibition reaches its midpoint. Lower therefore signals higher potency.
